# Experimental data from paper PMC8418782 (Molecular cell, 2021).
# What was measured:
# [1] = biological target: T1, human Hsp90α (human, UniProt P07900 1-732); assay: SEC-MALS
# [2] = biological target: T1, human Hsp90α; assay: SEC-MALS; remark: listed apart in the source
binding result [1],stoichiometry N [2],Binder
binds,,"FKBP51 ΔH7e (Δ401–457) (domain or fragment, human, UniProt Q13451 1-400, looked up) MTTDEGAKNNEESPTATVAEQGEDITSKKDRGVLKIVKRVGNGEETPMIGDKVYVHYKGKLSNGKKFDSSHDRNEPFVFSLGKGQVIKAWDIGVATMKKGEICHLLCKPEYAYGSAGSLPKIPSNATLFFEIELLDFKGEDLFEDGGIIRRTKRKGEGYSNPNEGATVEIHLEGRCGGRMFDCRDVAFTVGEGEDHDIPIGIDKALEKMQREEQCILYLGPRYGFGEAGKPKFGIEPNAELIYEVTLKSFEKAKESWEMDTKEKLEQAAIVKEKGTVYFKGGKYMQAVIQYGKIVSWLEMEYGLSEKESKASESFLLAAFLNLAMCYLKLREYTKAVECCDKALGLDSANEKGLYRRGEAQLLMNEFESAKGDFEKVLEVNPQNKAARLQISMCQKKAKE"
,~0.5 p23 per Hsp90 chain (Hsp90:FKBP51:p23 2:1:1),human p23 (natural protein) MQPASAKWYDRRDYVFIEFCVEDSKDVNVNFEKSKLTFSCLGGSDNFKHLNEIDLFHCIDPNDSKHKRTDRSILCCLRKGESGQSWPRLTKERAKLNWLSVDFNNWKDWEDDSDEDMSNFDRFSEMMNNMGGDEDVDLPEVDGADDDSQDSDDEKMPDLE
binds,,"FKBP51 N402K (natural protein, human, UniProt Q13451 1-457, looked up) MTTDEGAKNNEESPTATVAEQGEDITSKKDRGVLKIVKRVGNGEETPMIGDKVYVHYKGKLSNGKKFDSSHDRNEPFVFSLGKGQVIKAWDIGVATMKKGEICHLLCKPEYAYGSAGSLPKIPSNATLFFEIELLDFKGEDLFEDGGIIRRTKRKGEGYSNPNEGATVEIHLEGRCGGRMFDCRDVAFTVGEGEDHDIPIGIDKALEKMQREEQCILYLGPRYGFGEAGKPKFGIEPNAELIYEVTLKSFEKAKESWEMDTKEKLEQAAIVKEKGTVYFKGGKYMQAVIQYGKIVSWLEMEYGLSEKESKASESFLLAAFLNLAMCYLKLREYTKAVECCDKALGLDSANEKGLYRRGEAQLLMNEFESAKGDFEKVLEVNPQNKAARLQISMCQKKAKEHKERDRRIYANMFKKFAEQDAKEEANKAMGKKTSEGVTNEKGTDSQAMEEEKPEGHV"
